Values joined by “and” are separate entries in the source; they are usually repeats but may differ in a detail not shown here. Equal values may be shown once.
Columns and labels:
human CCR8 [1] = target: T1, human CCR8 (human, UniProt P51685 1-355); assay: cell-based or functional assay
human CCR8 [2] = target: T1, human CCR8; assay: cell-based or functional assay; remark: listed apart in the source
human CCR8 [3] = target: T1, human CCR8; assay: flow cytometry, HUT78 cells (endogenous CCR8)
Method: (§1) In human activated T cells model, prior to mAb incubation, cells were first incubated with 200 nM of hCCL1 (R&D Systems, Minneapolis, MN, USA) or buffer PBS (Invitrogen by Thermofisher Scientific, Illkirch-Graffenstaden, France) supplemented by 2% Fetal Bovine Serum (Invitrogen by Thermofisher Scientific, Illkirch-Graffenstaden, France) and 2 mM EDTA (Invitrogen by Thermofisher Scientific, Illkirch-Graffenstaden, France) during 1 hour at 4° C. To determine EC50 value, 8 concentrations of anti-CCR8 mAb were tested. Unbound antibodies were washed away with PBS (Invitrogen by Thermofisher Scientific, Illkirch-Graffenstaden, France) supplemented by 2% Fetal Bovine Serum (Invitrogen by Thermofisher Scientific, Illkirch-Graffenstaden, France) and 2 mM EDTA (Invitrogen by Thermofisher Scientific, Illkirch-Graffenstaden, France). Subsequently, cells are centrifuged (5 min at 400 g) and bound antibody is detected with F(ab′)2-Goat anti-Mouse IgG (H+L) Cross-Adsorbed Secondary Antibody, Alexa Fluor 488 (dilution 1/500) (Invitrogen by Thermofisher Scientific, Illkirch-Graffenstaden, France) or with F(ab′)₂-Goat anti-Human IgG Fc Secondary Antibody, PE (Invitrogen by Thermofisher Scientific, Illkirch-Graffenstaden, France) (dilution 1/1000) at 4° C. for 30 min. Detection reagent is washed away and cells are centrifuged (5 min at 400 g) and resuspended in 30 μL PBS. Bound detection antibody is quantified on a MacsQuant16 (Miltenyi, Gladbach, Germany) (B1 or B2 channel, 5000 events per acquisition). During the experiment, the respective isotype mAb controls (mouse IgG1, mouse IgG2a, mouse IgG2b, mouse IgG3 or human IgG1) (Biolegend, Amsterdam, The Netherlands) are included to exclude any unspecific binding events. EC50 values were determined via nonlinear fit “log (agonist) vs.response—Variable slope (four parameters)” function of Graphpad prism. EC50 values were not constantly determined in the same experiments.
Anti-CCR8 mAb cellular reactivity was also evaluated on native human CCR8 from HUT78 cell line by flow cytometry. In Table 4.3, Mean Fluorescence Intensity (Fold change to isotype control), the percentage of labelled cells and EC50 in nM of some anti-CCR8 antibodies are presented.

human CCR8 [4] = target: T1, human CCR8; assay: flow cytometry, human activated T cells (endogenous CCR8)
Method: as §1
Binding characteristics of anti-CCR8 mAb cellular reactivity was further investigated by testing their binding to activated T cells.

human CCR8 [5] = target: T1, human CCR8; assay: flow cytometry, human activated T cells pre-saturated with 200 nM hCCL1
Method: Unbound antibodies were washed away with PBS (Invitrogen by Thermofisher Scientific, Illkirch-Graffenstaden, France) supplemented by 2% Fetal Bovine Serum (Invitrogen by Thermofisher Scientific, Illkirch-Graffenstaden, France) and 2 mM EDTA (Invitrogen by Thermofisher Scientific, Illkirch-Graffenstaden, France). Subsequently, cells are centrifuged (5 min at 400 g) and bound antibody is detected with F(ab′)2-Goat anti-Mouse IgG (H+L) Cross-Adsorbed Secondary Antibody, Alexa Fluor 488 (dilution 1/500) (Invitrogen by Thermofisher Scientific, Illkirch-Graffenstaden, France) or with F(ab′)₂-Goat anti-Human IgG Fc Secondary Antibody, PE (Invitrogen by Thermofisher Scientific, Illkirch-Graffenstaden, France) (dilution 1/1000) at 4° C. for 30 min. Detection reagent is washed away and cells are centrifuged (5 min at 400 g) and resuspended in 30 μL PBS. Bound detection antibody is quantified on a MacsQuant16 (Miltenyi, Gladbach, Germany) (B1 or B2 channel, 5000 events per acquisition). During the experiment, the respective isotype mAb controls (mouse IgG1, mouse IgG2a, mouse IgG2b, mouse IgG3 or human IgG1) (Biolegend, Amsterdam, The Netherlands) are included to exclude any unspecific binding events. EC50 values were determined via nonlinear fit “log (agonist) vs.response—Variable slope (four parameters)” function of Graphpad prism. EC50 values were not constantly determined in the same experiments.
Binding characteristics of anti-CCR8 mAb cellular reactivity was further investigated by testing their binding to activated T cells. […] For some anti-CCR8 antibodies, their binding on hCCR8 from human activated T cells was tested after a pre-saturation with 200 nM of hCCL1.

[6] = target: T2, human CCR8 with a SNAP-tag at the N-terminus (human, UniProt P51685 1-355, SNAP-tag labelled covalently with Lumi4-Terbium); assay: HTRF Tag-lite, inhibition of hCCL1-AF647 binding to SNAP-hCCR8 on HEK-293 cells
T2 construct: also called hCCR8 SNAP-tag; CCR8 SNAP-tag

B1: anti-CCR8 mAb 1-20 (antibody, human IgG1, kappa)
heavy: not shown
light: DIVMTQAAPSLSVTPGESASISCTSSKSLLHSNGNTYLYWFLQKPGQSPQLLIYRMSNLASGVPDRFSGSGSGTAFTLKISRVEAEDVGVYYCMQHREYPFTFGSGTKLEIKRTVAAPSVFIFPPSDEQLKSGTASVVCLLNNFYPREAKVQWKVDNALQSGNSQESVTEQDSKDSTYSLSSTLTLSKADYEKHKVYACEVTHQGLSSPVTKSFNRGEC
notes: Humanized mAb, human IgG1 / kappa
Q: B1 was tested. Which “IC50 of CCL1-induced hCCR8 Gi2 signaling (BRET, HEK-293)” value (“IC50 … (BRET, HEK-293)” below) (human CCR8 [1]) did it give?
A: Its value is 0.029 µg/mL and 0.194 nM.

Q: And the “residual hCCL1 (100 nM) Gi2 response, protocol #2, mAb 0.08 µg/mL” value (human CCR8 [2])?
A: Its value is 62%.

Q: And the “residual hCCL1 (100 nM) Gi2 response, protocol #2, mAb 0.4 µg/mL” value (human CCR8 [2])?
A: Its value is 38%.

Q: What about the “residual hCCL1 (100 nM) Gi2 response, protocol #2, mAb 10 µg/mL” value (human CCR8 [2]) of the same binder?
A: The value was 30%.

Q: And the “residual hCCL1 (100 nM) Gi2 response, protocol #3, mAb 0.05 µg/mL” value (human CCR8 [2])?
A: The value was 94%.

Q: What about the “residual hCCL1 (100 nM) Gi2 response, protocol #3, mAb 0.5 µg/mL” value (human CCR8 [2]) of the same binder?
A: The value was 63%.

Q: What about the “residual hCCL1 (100 nM) Gi2 response, protocol #3, mAb 5 µg/mL” value (human CCR8 [2]) of the same binder?
A: Its value is 39%.

Q: And the “% of labelled cells” value (human CCR8 [3])?
A: The value was 23%.

Q: And the “% of labelled cells” value (human CCR8 [4])?
A: Its value is 79%.

Q: What about the “% of labelled cells” value (human CCR8 [5]) of the same binder?
A: The value was 64%.

Q: And the IC50 [6]?
A: The IC50 was 0.09 µg/mL.

Q: What about the Ki [6] of the same binder?
A: The Ki was 0.05 µg/mL.

B2: anti-CCR8 mAb 1-22 (antibody, human IgG1, kappa, V domains shown)
VH: EVQLLESGGGLVQPGGSLRLSCAASGFTFNAYAMNWVRQAPGKGLEWVARIRSKSNDYATYYGDSVKGRFTISRDNSKNTLYLQMNSLRAEDTAVYYCVRGREAYYRYDGGYYAMDVWGQGTTVTVSS
VL: DIVMTQSPLSLPVTPGEPASISCRSSKSLLHSNGNTYLYWFLQKPGQSPQLLIYRVSNLASGVPDRFSGSGSGTDFTLKISRVEAEDVGVYYCMQHREYPFTFGQGTKLEIKR
notes: as for B1
Q: B2 was tested. Which “IC50 … (BRET, HEK-293)” value (human CCR8 [1]) did it give?
A: Its value is 0.068 µg/mL and 0.452 nM.

Q: What about the “residual hCCL1 (100 nM) Gi2 response, protocol #2, mAb 0.08 µg/mL” value (human CCR8 [2]) of the same binder?
A: Its value is 94%.

Q: And the “residual hCCL1 (100 nM) Gi2 response, protocol #2, mAb 0.4 µg/mL” value (human CCR8 [2])?
A: The value was 77%.

Q: And the “residual hCCL1 (100 nM) Gi2 response, protocol #2, mAb 10 µg/mL” value (human CCR8 [2])?
A: The value was 31%.

Q: And the “residual hCCL1 (100 nM) Gi2 response, protocol #3, mAb 0.05 µg/mL” value (human CCR8 [2])?
A: Its value is 110%.

Q: And the “residual hCCL1 (100 nM) Gi2 response, protocol #3, mAb 0.5 µg/mL” value (human CCR8 [2])?
A: The value was 76%.

Q: And the “residual hCCL1 (100 nM) Gi2 response, protocol #3, mAb 5 µg/mL” value (human CCR8 [2])?
A: Its value is 33%.

Q: What about the “% of labelled cells” value (human CCR8 [3]) of the same binder?
A: The value was 97%.

Q: What about the “% of labelled cells” value (human CCR8 [4]) of the same binder?
A: Its value is 92%.

Q: What about the “% of labelled cells” value (human CCR8 [5]) of the same binder?
A: Its value is 92%.

Q: What about the IC50 [6] of the same binder?
A: Its IC50 is 0.15 µg/mL.

Q: And the Ki [6]?
A: Its Ki is 0.08 µg/mL and 0.5 nM.

B3: anti-CCR8 mAb 1-25 (antibody, human IgG1, kappa, V domains shown)
VH: QVQLVESGGGVVQPGRSLRLSCAASGFTFSNYRMHWVRQAPGKGLEWIAVIKVKSDNYGANYADSVKGRFTISRDNSKNTLYLQMNSLRAEDTAVYYCSSPTYPGSSGFAYWGQGTLVTVSS
VL: DIQMTQSPSSLSASVGDRVTITCRASQDISNYLNWYQQKPDGTVKLLIYYTSRLHTGVPSRFSGSGSGTDYTLTISNLQQEDIATYFCQQGNKFPPTFGGGTKVEINR
notes: as for B1
Q: For B3, which “IC50 … (BRET, HEK-293)” value (human CCR8 [1]) is on record?
A: The value was 0.02 µg/mL and 0.134 nM.

Q: What about the “% of labelled cells” value (human CCR8 [3]) of the same binder?
A: Its value is 93%.

Q: What about the “% of labelled cells” value (human CCR8 [4]) of the same binder?
A: Its value is 63%.

Q: And the “% of labelled cells” value (human CCR8 [5])?
A: Its value is 54%.

Q: What about the IC50 [6] of the same binder?
A: The IC50 was 0.02 µg/mL.

Q: What about the Ki [6] of the same binder?
A: Its Ki is 0.01 µg/mL and 0.07 nM.

Reference: US20260132208A1 (DOMAIN THERAPEUTICS, published 2026)
